Data as given in US20190083612A1 (RINAT NEUROSCIENCE, published 2019).
Values belong to the molecule of their own block, whether it stands above or below them.

Columns and labels:
[1] = molecular target: Cynomolgus Monkey-FCGRIIIa 42S (cynomolgus monkey); assay: SPR (ProteOn NLC chip), 25 C, pH 7.4, n = 3
[2] = molecular target: Cynomolgus Monkey-FCGRIIa (cynomolgus monkey); assay: SPR (ProteOn NLC chip), 25 C, pH 7.4, n = 3
[3] = molecular target: Cynomolgus Monkey-FCGRIIIa 42R (cynomolgus monkey) (UniProt Q8SPW2); assay: SPR (ProteOn NLC chip), 25 C, pH 7.4, n = 3
Cynomolgus Monkey-FCGRIIIa 42R (cynomolgus monkey), sequence (Q8SPW2 17-208 limits assumed): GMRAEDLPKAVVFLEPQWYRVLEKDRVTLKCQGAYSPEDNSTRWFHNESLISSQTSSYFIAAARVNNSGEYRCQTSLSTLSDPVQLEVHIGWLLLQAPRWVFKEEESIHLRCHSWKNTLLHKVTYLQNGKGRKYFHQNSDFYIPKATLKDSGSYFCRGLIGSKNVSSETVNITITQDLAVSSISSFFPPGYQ

[4] = molecular target: Cynomolgus Monkey-FcRn (cynomolgus monkey) (UniProt Q8SPV9); assay: SPR (ProteOn NLC chip), 25 C, pH 5.9, n = 3
Cynomolgus Monkey-FcRn (cynomolgus monkey), sequence (Q8SPV9 24-297 limits assumed, form in doubt): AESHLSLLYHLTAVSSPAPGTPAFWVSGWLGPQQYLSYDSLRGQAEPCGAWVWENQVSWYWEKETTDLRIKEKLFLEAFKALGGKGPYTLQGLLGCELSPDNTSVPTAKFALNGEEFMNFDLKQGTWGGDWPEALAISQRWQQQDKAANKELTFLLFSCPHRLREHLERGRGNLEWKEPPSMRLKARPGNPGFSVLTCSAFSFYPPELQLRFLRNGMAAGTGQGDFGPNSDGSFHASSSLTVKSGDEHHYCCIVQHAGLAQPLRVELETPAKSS

[5] = molecular target: hu-FcRn (human neonatal Fc receptor) (human) (UniProt P55899); assay: SPR (ProteOn NLC chip), 25 C, pH 5.9, n = 3
[6] = molecular target: hu-FCGRI (hu-CD64) (human) (UniProt P12314); assay: SPR (ProteOn NLC chip), 25 C, pH 7.4, n = 4
hu-FCGRI (hu-CD64) (human), sequence (P12314 16-288 limits assumed): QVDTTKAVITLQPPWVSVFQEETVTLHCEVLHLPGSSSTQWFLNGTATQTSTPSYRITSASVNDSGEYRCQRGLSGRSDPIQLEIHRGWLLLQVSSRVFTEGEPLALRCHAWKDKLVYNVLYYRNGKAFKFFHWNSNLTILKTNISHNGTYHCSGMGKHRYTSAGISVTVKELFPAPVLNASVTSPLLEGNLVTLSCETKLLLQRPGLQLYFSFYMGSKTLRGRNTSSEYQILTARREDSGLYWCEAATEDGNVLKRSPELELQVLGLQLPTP

[7] = molecular target: hu-FCGRIIb (hu-CD32b) (human) (UniProt P31994); assay: SPR (ProteOn NLC chip), 25 C, pH 7.4
hu-FCGRIIb (hu-CD32b) (human), sequence (P31994 46-217): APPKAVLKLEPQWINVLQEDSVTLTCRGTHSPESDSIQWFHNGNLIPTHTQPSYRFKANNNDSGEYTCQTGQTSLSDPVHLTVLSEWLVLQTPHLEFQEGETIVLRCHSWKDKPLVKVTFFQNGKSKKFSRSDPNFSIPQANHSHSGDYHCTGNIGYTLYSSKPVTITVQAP

[8] = molecular target: hu-FCGRIIa (hu-CD32a) 131R (human) (UniProt P12318); assay: SPR (ProteOn NLC chip), 25 C, pH 7.4
hu-FCGRIIa (hu-CD32a) 131R (human), sequence (P12318 36-218 H167R): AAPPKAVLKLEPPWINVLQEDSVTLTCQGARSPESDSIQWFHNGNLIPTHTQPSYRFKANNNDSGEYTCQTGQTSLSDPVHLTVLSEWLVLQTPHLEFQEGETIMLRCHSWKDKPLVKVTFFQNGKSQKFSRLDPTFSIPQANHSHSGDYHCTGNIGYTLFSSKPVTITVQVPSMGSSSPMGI

[9] = molecular target: hu-FCGRIIa (hu-CD32a) 131H (human) (UniProt P12318); assay: SPR (ProteOn NLC chip), 25 C, pH 7.4
hu-FCGRIIa (hu-CD32a) 131H (human), sequence (P12318 36-218): as the sequence (P12318 36-218 H167R) above, with R132H counted along it

[10] = molecular target: hu-FCGRI (hu-CD64) (human) (UniProt P12314); assay: SPR (ProteOn NLC chip), 25 C, pH 7.4
[11] = molecular target: mouse-PD-L1 (positive control of Example 12) (mouse, UniProt Q9EP73 19-238, limits assumed); assay: SPR, 25 C
[12] = molecular target: T1, mouse-PD-L2 (positive control of Example 12) (mouse, UniProt Q9WUL5 20-219, limits assumed); assay: SPR, 25 C
T1 sequence (looked up): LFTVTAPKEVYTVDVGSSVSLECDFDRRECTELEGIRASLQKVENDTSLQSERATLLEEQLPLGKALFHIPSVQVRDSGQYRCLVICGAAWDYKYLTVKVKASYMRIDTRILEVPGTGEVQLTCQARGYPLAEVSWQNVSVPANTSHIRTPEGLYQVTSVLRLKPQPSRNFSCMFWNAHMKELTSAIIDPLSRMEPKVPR

[13] = molecular target: T2, rat PD-1 on primary rat T cells (rat, UniProt D3ZIN8 25-287); assay: flow cytometry, activated rat T cells
T2 sequence: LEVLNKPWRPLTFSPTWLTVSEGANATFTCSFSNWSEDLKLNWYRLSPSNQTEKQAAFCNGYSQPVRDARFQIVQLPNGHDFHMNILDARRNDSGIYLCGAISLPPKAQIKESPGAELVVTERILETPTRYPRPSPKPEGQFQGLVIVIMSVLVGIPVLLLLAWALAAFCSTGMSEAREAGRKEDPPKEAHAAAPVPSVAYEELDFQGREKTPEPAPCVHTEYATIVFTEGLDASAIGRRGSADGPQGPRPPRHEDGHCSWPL

[14] = molecular target: T3, human PD-1 (hPD-1) monomer (human, UniProt Q15116 25-167); assay: SPR, human PD-1, 37 C
T3 construct: also called hu-PD-1; not shown: His tag (His-tagged monomer)
T3 sequence (Q15116 25-167 limits assumed): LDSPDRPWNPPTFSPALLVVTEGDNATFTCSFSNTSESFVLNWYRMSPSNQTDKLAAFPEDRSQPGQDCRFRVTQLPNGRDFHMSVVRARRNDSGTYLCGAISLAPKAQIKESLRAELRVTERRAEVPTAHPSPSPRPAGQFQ

Molecule: Isotype-matched control, hu-IgG4 (antibody)
- Kd [1]: 1.9 µM
- Kd [2]: 2.6 µM
- Kd [3]: 3.2 µM
- Kd [4]: 0.57 µM
- Kd [5]: 0.82 µM
- Kd [6]: 0.000177 µM
- Kd [7]: 0.7 µM
- Kd [8]: 0.4 µM
- Kd [9]: 3.9 µM
- koff [10]: 0.0018 s⁻¹
- kon [10]: 1e+06 M⁻¹ s⁻¹

B1: rat-PD-1 (recombinant purified, Example 12) (receptor)
chain: LEVLNKPWRPLTFSPTWLTVSEGANATFTCSFSNWSEDLKLNWYRLSPSNQTEKQAAFCNGYSQPVRDARFQIVQLPNGHDFHMNILDARRNDSGIYLCGAISLPPKAQIKESPGAELVVTERILETPTRYPRPSPKPEGQFQGL
- binding result [11]: binds
- binding result [12]: binds

Other lines, results leading:

- binding result [13]: binds
B2: Rat-PD-L1-Fc-Tag (Creative BioMart) (Fc fusion, not shown: a dimerising Fc or GST; small tags and cut ends)
chain: FTITAPKDLYVVEYGSNVTMECRFPVEQKLDLLALVVYWEKEDKEVIQFVEGEEDLKPQHSSFRGRAFLPKDQLLKGNAVLQITDVKLQDAGVYCCMISYGGADYKRITLKVNAPYRKINQRISMDPATSEHELMCQAEGYPEAEVIWTNSDHQSLSGETTVTTSQTEEKLLNVTSVLRVNATANDVFHCTFWRVHSGENHTAELIIPELPVPRLPHNRTH

- Kd [14]: 0.089 µM
B3: mAb4 (antibody, V domains shown)
VH: QVQLVQSGAEVKKPGASVKVSCKASGYTFTSYWINWVRQAPGQGLEWMGNIYPGSSLTNYNEKFKNRVTMTRDTSTSTVYMELSSLRSEDTAVYYCARLLTGTFAYWGQGTLVTVSS
VL: DIVMTQSPDSLAVSLGERATINCKSSQSLWDSTNQKNFLTWYQQKPGQPPKLLIYWTSTRESGVPDRFSGSGSGTDFTLTISSLQAEDVAVYYCQNDYFYPLTFGGGTKVEIK
notes: Variable regions only
